According to patent US20260000597A1 (priority 2018, published 2026):

Molecular target: AchR (Homo sapiens, UniProt P02708)
Test: ELISA of screened peptide phages on AchR versus streptavidin (OD450)
Assay type: binding
Settings: absorbance at 450 nm
In short: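 Phage supernatants from 4th–5th round plaques, in 2% BSA, applied 1 h at 30 °C to wells coated with 5 μg/ml AchR or streptavidin. Bound phage detected with HRP anti-M13 and TMB at OD450; value given as AchR/streptavidin signal ratio.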

[1] = ELISA of selected 14-mer (L3) peptide phages on AchR, Spep-2 positive control
[2] = ELISA of selected 11-mer (L2) peptide phages on AchR, Spep-2 positive control
[3] = phage ELISA, 5 μg/ml AchR, 4th and 5th round biopanning phages

Chain of AchR (P02708 21-457): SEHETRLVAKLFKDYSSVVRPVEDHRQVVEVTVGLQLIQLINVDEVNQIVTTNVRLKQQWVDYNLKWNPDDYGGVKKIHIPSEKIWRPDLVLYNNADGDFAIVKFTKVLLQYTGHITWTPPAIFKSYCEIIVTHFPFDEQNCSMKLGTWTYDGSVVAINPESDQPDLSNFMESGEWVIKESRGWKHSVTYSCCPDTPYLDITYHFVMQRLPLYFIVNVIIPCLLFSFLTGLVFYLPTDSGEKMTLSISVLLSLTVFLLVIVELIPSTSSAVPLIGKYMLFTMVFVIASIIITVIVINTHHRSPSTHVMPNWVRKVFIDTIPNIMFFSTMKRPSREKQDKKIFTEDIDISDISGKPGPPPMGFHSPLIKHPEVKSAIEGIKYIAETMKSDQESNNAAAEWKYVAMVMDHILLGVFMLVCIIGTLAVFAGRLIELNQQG

Substance	OD [1]	OD [2]	OD [3]
L3-167 (AMCREKRFPYRAIY; AchR binding peptide) [Peptide L3-167]	0.634		
L2-188 (CLWRLRKDNGR; AchR binding peptide) [Peptide L2-188]		0.73	
L2-157 (NFYKCRKLQCK; AchR binding peptide) [Peptide L2-157]		0.731	
L2-97 (DVNKYRKHSHK; AchR binding peptide) [Peptide L2-97]		0.531	
L2-86 (SQWKIRKRLIR; AchR binding peptide) [Peptide L2-86]		0.701	
RCKKNPEK [Peptide L1-66]			0.605
L2-54 (HHWRFKREMPR; AchR binding peptide) [Peptide L2-54]		0.609	
L3-32 (CATRGKKVFSKRTM; AchR binding peptide) [Peptide L3-32]	0.845		
L3-38 (TVVKSRKCSVRYNW; AchR binding peptide) [Peptide L3-38]	0.669		
L2-141 (SSHKGKRAQSK; AchR binding peptide) [Peptide L2-141]		0.462	
L3-124 (GAQRARKPVLRAVG; AchR binding peptide) [Peptide L3-124]	0.515		
L2-89 (PPFKFRKPLGR; AchR binding peptide) [Peptide L2-89]		0.749	
L3-155 (AWTRFRRFQCKGMS; AchR binding peptide) [Peptide L3-155]	0.794		
GGGRRRRRRRR [Peptide L2-204, reference compound]			0.311
L3-157 (CMLRWKRWHMRFNP; AchR binding peptide) [Peptide L3-157]	0.731		
RLRRRYRR [Peptide L1-45]			0.597
L2-35 (NFTKLRKPGPR; AchR binding peptide) [Peptide L2-35]		0.683	
L2-195 (CQAKTRKAEDR; AchR binding peptide) [Peptide L2-195]		0.65	
L3-187 (HGHKPRRWIYRMPM; AchR binding peptide) [Peptide L3-187]	0.731		
RGRRWFVK [Peptide L1-28]			0.656

Substance	OD [1]	OD [2]	OD [3]
L2-181 (PGARCRKQDVK; AchR binding peptide) [Peptide L2-181]		0.749	
KARRQEDK [Peptide L1-14]			0.755
KAKKIRQR [Peptide L1-1]			0.693
L2-8 (FGHRGKKEWAR; AchR binding peptide) [Peptide L2-8]		0.739	
KCKKDNDK [Peptide L1-184]			0.593
L2-47 (IEDKGRRINPR; AchR binding peptide) [Peptide L2-47]		0.707	
L3-145 (MHIKMKREQVKDEE; AchR binding peptide) [Peptide L3-145]	0.495		
L3-2 (SFYKERKCQFRSGL; AchR binding peptide) [Peptide L3-2]	0.841		
KQKKTGFR [Peptide L1-55]			0.585
RFKRLCMK [Peptide L1-15]			0.67
L2-46 (CYWKAKRYPMR; AchR binding peptide) [Peptide L2-46]		0.704	
GGRKKRRQRRR [Peptide L2-203, reference compound]			0.302
RQRRMTPR [Peptide L1-156]			0.589
L2-15 (HTTRGKRCDPR; AchR binding peptide) [Peptide L2-15]		0.705	
L3-192 (NGYRARKENLKFPE; AchR binding peptide) [Peptide L3-192]	0.735		
RIRRWWVR [Peptide L1-82]			0.596
KTKRVDPK [Peptide L1-102]			0.507
L3-48 (PHCRQKKFWIRCGT; AchR binding peptide) [Peptide L3-48]	0.622		
L2-63 (IDGKWRKICTR; AchR binding peptide) [Peptide L2-63]		0.742	
L3-85 (QLVKLRKLARRVSY; AchR binding peptide) [Peptide L3-85]	0.735		
